{"source": "paper PMC2953525", "about": "“Subtle Alterations in PCNA-Partner Interactions Severely Impair DNA Replication and Repair” (PLoS Biology, 2010)", "binders": {"B1": {"name": "Msh6 (natural protein, yeast, UniProt Q03834 1-1242, looked up)", "chain": "MAPATPKTSKTAHFENGSTSSQKKMKQSSLLSFFSKQVPSGTPSKKVQKPTPATLENTATDKITKNPQGGKTGKLFVDVDEDNDLTIAEETVSTVRSDIMHSQEPQSDTMLNSNTTEPKSTTTDEDLSSSQSRRNHKRRVNYAESDDDDSDTTFTAKRKKGKVVDSESDEDEYLPDKNDGDEDDDIADDKEDIKGELAEDSGDDDDLISLAETTSKKKFSYNTSHSSSPFTRNISRDNSKKKSRPNQAPSRSYNPSHSQPSATSKSSKFNKQNEERYQWLVDERDAQRRPKSDPEYDPRTLYIPSSAWNKFTPFEKQYWEIKSKMWDCIVFFKKGKFFELYEKDALLANALFDLKIAGGGRANMQLAGIPEMSFEYWAAQFIQMGYKVAKVDQRESMLAKEMREGSKGIVKRELQCILTSGTLTDGDMLHSDLATFCLAIREEPGNFYNETQLDSSTIVQKLNTKIFGAAFIDTATGELQMLEFEDDSECTKLDTLMSQVRPMEVVMERNNLSTLANKIVKFNSAPNAIFNEVKAGEEFYDCDKTYAEIISSEYFSTEEDWPEVLKSYYDTGKKVGFSAFGGLLYYLKWLKLDKNLISMKNIKEYDFVKSQHSMVLDGITLQNLEIFSNSFDGSDKGTLFKLFNRAITPMGKRMMKKWLMHPLLRKNDIESRLDSVDSLLQDITLREQLEITFSKLPDLERMLARIHSRTIKVKDFEKVITAFETIIELQDSLKNNDLKGDVSKYISSFPEGLVEAVKSWTNAFERQKAINENIIVPQRGFDIEFDKSMDRIQELEDELMEILMTYRKQFKCSNIQYKDSGKEIYTIEIPISATKNVPSNWVQMAANKTYKRYYSDEVRALARSMAEAKEIHKTLEEDLKNRLCQKFDAHYNTIWMPTIQAISNIDCLLAITRTSEYLGAPSCRPTIVDEVDSKTNTQLNGFLKFKSLRHPCFNLGATTAKDFIPNDIELGKEQPRLGLLTGANAAGKSTILRMACIAVIMAQMGCYVPCESAVLTPIDRIMTRLGANDNIMQGKSTFFVELAETKKILDMATNRSLLVVDELGRGGSSSDGFAIAESVLHHVATHIQSLGFFATHYGTLASSFKHHPQVRPLKMSILVDEATRNVTFLYKMLEGQSEGSFGMHVASMCGISKEIIDNAQIAADNLEHTSRLVKERDLAANNLNGEVVSVPGGLQSDFVRIAYGDGLKNTKLGSGEGVLNYDWNIKRNVLKSLFSIIDDLQS", "notes": "Msh6 (mismatch repair), yeast; also called pBD-Msh6; source: yeast two-hybrid fusion (pBD-GAL4, strain YRG2)"}, "B2": {"name": "Ung1 (natural protein, yeast, UniProt P12887 1-359, looked up)", "chain": "MWCMRRLPTNSVMTVARKRKQTTIEDFFGTKKSTNEAPNKKGKSGATFMTITNGAAIKTETKAVAKEANTDKYPANSNAKDVYSKNLSSNLRTLLSLELETIDDSWFPHLMDEFKKPYFVKLKQFVTKEQADHTVFPPAKDIYSWTRLTPFNKVKVVIIGQDPYHNFNQAHGLAFSVKPPTPAPPSLKNIYKELKQEYPDFVEDNKVGDLTHWASQGVLLLNTSLTVRAHNANSHSKHGWETFTKRVVQLLIQDREADGKSLVFLLWGNNAIKLVESLLGSTSVGSGSKYPNIMVMKSVHPSPLSASRGFFGTNHFKMINDWLYNTRGEKMIDWSVVPGTSLREVQEANARLESESKDP", "notes": "Ung1 (base excision repair), yeast; also called pBD-Ung1; source: yeast two-hybrid fusion (pBD-GAL4, strain YRG2)"}}, "key": {"[1]": {"target": "T1, pol30-Rad30E9, 6×Histidine-tagged (yeast, UniProt P15873 1-258, IDCL DIDADFLKIEEL to DNDWDFLKIDEL)", "T1 construct": "PCNA (POL30), yeast, in pET28; also called Pol30-Rad30E9p; source: E. coli BL21, in cleared crude lysate (ELISA); purified by Ni-NTA (SPR)", "T1 sequence": "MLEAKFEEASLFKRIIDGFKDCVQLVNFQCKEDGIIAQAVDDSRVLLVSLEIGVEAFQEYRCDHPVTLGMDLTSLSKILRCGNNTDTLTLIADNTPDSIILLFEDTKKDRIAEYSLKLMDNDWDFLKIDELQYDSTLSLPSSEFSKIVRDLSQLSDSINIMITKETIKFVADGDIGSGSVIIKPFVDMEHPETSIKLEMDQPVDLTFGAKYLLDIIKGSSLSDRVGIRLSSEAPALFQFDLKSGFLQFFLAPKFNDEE", "experiment": "SPR; ProteOn XPR36; WT or mutant PCNA (0.4 to 5.2 fmol) immobilised on a GLM chip by carbodiimide-activated succinimide coupling; PIP peptides 5–5,000 nM at 30 µl/min; peptide buffer 150 mM NaCl, 1 mM EDTA, 0.01% Tween-80, 30 mM Hepes, pH 7.5", "settings": "both partners purified"}, "pol30-Msh6E6": {"target": "T2, pol30-Msh6E6 (yeast, UniProt P15873 1-258, IDCL DIDADFLKIEEL to DYDKDLLKIIEL)", "T2 construct": "PCNA (POL30), yeast; source: yeast two-hybrid fusion (pAD-GAL4, strain YRG2)", "T2 sequence": "T1 sequence with N121Y, W123K, F125L, D129I", "experiment": "two-hybrid; quantitative Y2H: generation time of the YRG2 strains in liquid SC-Leu-Trp-His, given relative to cells expressing WT PCNA; average of at least 3 experiments", "settings": "partners not purified"}, "pol30-79": {"target": "T3, pol30-79 (yeast, UniProt P15873 1-258, IDCL DIDADFLKIEEL to DIDADFAKAEEL)", "T3 construct": "PCNA (POL30), yeast; the changes are then L126A and I128A; also called PCNA79; source: yeast two-hybrid fusion (pAD-GAL4, strain YRG2)", "T3 sequence": "T1 sequence with N121I, W123A, L126A, I128A, D129E", "experiment": "two-hybrid; quantitative Y2H: generation time of the YRG2 strains in liquid SC-Leu-Trp-His, given relative to cells expressing WT PCNA; average of at least 3 experiments", "settings": "partners not purified"}, "pol30-Msh6E2": {"target": "T4, pol30-Msh6E2 (yeast, UniProt P15873 1-258, IDCL DIDADFLKIEEL to DYDRDMLKISEL)", "T4 construct": "PCNA (POL30), yeast; source: yeast two-hybrid fusion (pAD-GAL4, strain YRG2)", "T4 sequence": "T1 sequence with N121Y, W123R, F125M, D129S", "experiment": "two-hybrid; quantitative Y2H: generation time of the YRG2 strains in liquid SC-Leu-Trp-His, given relative to cells expressing WT PCNA; average of at least 3 experiments", "settings": "partners not purified"}, "[2]": {"target": "T5, pol30-Pol32E9, 6×Histidine-tagged (yeast, UniProt P15873 1-258, IDCL DIDADFLKIEEL to DNDVDSLKIIEL)", "T5 construct": "PCNA (POL30), yeast, in pET28; source: E. coli BL21, in cleared crude lysate (ELISA); purified by Ni-NTA (SPR)", "T5 sequence": "T1 sequence with W123V, F125S, D129I", "experiment": "SPR; ProteOn XPR36; WT or mutant PCNA (0.4 to 5.2 fmol) immobilised on a GLM chip by carbodiimide-activated succinimide coupling; PIP peptides 5–5,000 nM at 30 µl/min; peptide buffer 150 mM NaCl, 1 mM EDTA, 0.01% Tween-80, 30 mM Hepes, pH 7.5", "settings": "both partners purified"}, "[3]": {"target": "T6, pol30-Ung1E3, 6×Histidine-tagged (yeast, UniProt P15873 1-258, IDCL DIDADFLKIEEL to DFDYDELKIEEL)", "T6 construct": "PCNA (POL30), yeast, in pET28; source: E. coli BL21, in cleared crude lysate (ELISA); purified by Ni-NTA (SPR)", "T6 sequence": "T1 sequence with N121F, W123Y, F125E, D129E", "experiment": "SPR; ProteOn XPR36; WT or mutant PCNA (0.4 to 5.2 fmol) immobilised on a GLM chip by carbodiimide-activated succinimide coupling; PIP peptides 5–5,000 nM at 30 µl/min; peptide buffer 150 mM NaCl, 1 mM EDTA, 0.01% Tween-80, 30 mM Hepes, pH 7.5", "settings": "both partners purified"}, "[4]": {"target": "T7, pol30-Msh6E6, 6×Histidine-tagged (yeast, UniProt P15873 1-258, IDCL DIDADFLKIEEL to DYDKDLLKIIEL)", "T7 construct": "PCNA (POL30), yeast, in pET28; source: E. coli BL21, in cleared crude lysate (ELISA); purified by Ni-NTA (SPR)", "T7 sequence": "T1 sequence with N121Y, W123K, F125L, D129I", "experiment": "SPR; ProteOn XPR36; WT or mutant PCNA (0.4 to 5.2 fmol) immobilised on a GLM chip by carbodiimide-activated succinimide coupling; PIP peptides 5–5,000 nM at 30 µl/min; peptide buffer 150 mM NaCl, 1 mM EDTA, 0.01% Tween-80, 30 mM Hepes, pH 7.5", "settings": "both partners purified"}, "pol30-Ung1E3": {"target": "T8, pol30-Ung1E3 (yeast, UniProt P15873 1-258, IDCL DIDADFLKIEEL to DFDYDELKIEEL)", "T8 construct": "PCNA (POL30), yeast; source: yeast two-hybrid fusion (pAD-GAL4, strain YRG2)", "T8 sequence": "T1 sequence with N121F, W123Y, F125E, D129E", "experiment": "two-hybrid; quantitative Y2H: generation time of the YRG2 strains in liquid SC-Leu-Trp-His, given relative to cells expressing WT PCNA; average of at least 3 experiments", "settings": "partners not purified"}}, "note": "Substitutions are numbered along the chain they refer to. Where no end group is shown, it is not given here.", "data": [{"binder": "QKKQVTSSKNILSFFTRKK (also: biotinylated, site not given here)", "note": "[PIP peptide derived from Rad30]", "values": [{"measurement": "fold increase in binding affinity relative to WT PCNA (SPR)", "setting": "[1]", "value": 8.5, "unit": "fold"}]}, {"binder": "B1", "values": [{"measurement": "fold change in affinity relative to WT PCNA (Y2H generation time)", "setting": "pol30-Msh6E6", "value": 1.4, "unit": "fold"}, {"measurement": "fold change in affinity relative to WT PCNA (Y2H generation time)", "setting": "pol30-79", "value": 0.4, "unit": "fold"}, {"measurement": "fold change in affinity relative to WT PCNA (Y2H generation time)", "setting": "pol30-Msh6E2", "value": 1.4, "unit": "fold"}]}, {"binder": "QGTLESFFKRKAK (also: biotinylated, site not given here)", "note": "[PIP peptide derived from Pol32]", "values": [{"measurement": "fold increase in binding affinity relative to WT PCNA (SPR)", "setting": "[2]", "value": 2, "unit": "fold"}]}, {"binder": "QTTIEDFF (also: biotinylated, site not given here)", "note": "[PIP peptide derived from Ung1]", "values": [{"measurement": "fold increase in binding affinity relative to WT PCNA (SPR)", "setting": "[3]", "value": 3.5, "unit": "fold"}]}, {"binder": "QSSLLSFF (also: biotinylated, site not given here)", "note": "[PIP peptide derived from Msh6]", "values": [{"measurement": "fold increase in binding affinity relative to WT PCNA (SPR)", "setting": "[4]", "value": 1.6, "unit": "fold"}]}, {"binder": "B2", "values": [{"measurement": "fold change in affinity relative to WT PCNA (Y2H generation time)", "setting": "pol30-79", "value": 0.3, "unit": "fold"}, {"measurement": "fold change in affinity relative to WT PCNA (Y2H generation time)", "setting": "pol30-Ung1E3", "value": 1.3, "unit": "fold"}]}]}
